Results as given in patent US20080274959A1, “Actinomadura Chromoprotein, Apoprotein and Gene Cluster” (Wyeth, priority 2004, published 2008).

Legend:
[1] = tested on: HCT116 p21+/+ and −/− cells; assay: COMET assay for DNA damage; assay type: cell-based, human; settings: both p21-proficient and p21-deficient HCT116 cells
Text: A COMET assay obtained from Trevigen, Inc. was used to detect DNA damage. HCT116 p21+/+ and −/− cells were subjected to various amounts of the 21G792 chromoprotein and mitoxantrone.

Histone H1 = assay: Digestion of histone H1, SDS-PAGE; assay type: biochemical
Procedure: Histone H1 was incubated with various concentrations of the chromoprotein in 50 mM Tris-Cl, pH 7.5 overnight at 37° C. (FIG. 20) Digestions of histone were assessed by SDS-polyacrylamide gel electrophoresis (SDS-PAGE), followed by staining of the gel with GelCode Blue (Pierce Biotechnology, Inc, Rockford, Ill.).

LoVo = assay: Potency against human tumor cell lines: LoVo; assay type: cell-based; settings: Colon
BT474 = assay: Potency against human tumor cell lines: BT474; assay type: cell-based; settings: BT474, Breast
HCT116 cells = assay: Uptake of FITC-tagged protein, fluorescent microscopy / flow cytometry; assay type: cell-based, human; settings: FITC-labeled
Text: To determine the mechanism by which the chromoprotein enters cells and exerts its biological activity, the chromoprotein was labeled with a fluorescent tag (FITC) using EZ-Label fluorescent labeling kit (Pierce Biotechnology), according to the manufacturer's recommendation. […] Uptake of labeled material by HCT116 colon carcinoma cells was studied by fluorescent microscopy.
To determine whether an intact complex of chromophore and apoprotein is required for cellular and nuclear entry, the chromoprotein and apoprotein were labeled with FITC. Uptake of labeled material was studied by fluorescent microscopy.
To determine whether the entry of chromoprotein into cells is mediated by a saturable (e.g. cell surface receptor-dependent) process, HCT116 cells were incubated with FITC-labeled chromoprotein (FIG. 28, right panel) or apoprotein (FIG. 28, left panel) in the absence or presence of 10-fold excess of unlabeled reagent (unlabelled chromoprotein or apoprotein, respectively). Cells were analysed by fluorescent microscopy (left) or flow cytometry (right). […] Numbers in the histograms are mean channel numbers (FITC fluorescence).
Other means by which a protein complex can enter cells is pinocytosis, where caveolae in the surface of the cell pinch off to form pinosomes that are free within the cytoplasm of the cell. Since pinocytosis is an energy-dependent process that requires a functional tubulin cytoskeletal network, we examined the effect of sodium azide, an energy uncoupling agent and nocodazole, an agent which disrupts the tubulin cytoskeleton on cellular uptake. HCT116 cells were treated with FITC-labeled apoprotein in the absence or presence of sodium azide or nocodazole.

myelin basic protein = assay: Specificity of digestion: myelin basic protein; assay type: biochemical
KB = assay: IC50 against P-GP expressing cells: KB; assay type: cell-based; settings: P-GP level −, mean of two independent experiments
Text: (§1) Human PGP (MDR1) is an ATP-dependent efflux pump which is capable of transporting many drugs across cell membranes. High level expression of this protein has been linked to multiple drug resistance of tumors. […] The protein component of the chromoprotein probably protects the chromophore from drug efflux mediated by MDR1, and may be responsible for the beneficial antitumor effects in colon cell lines which often express MDR1.

LOX = assay: Potency against human tumor cell lines: LOX; assay type: cell-based; settings: Melanoma
KB-V-1 = assay: IC50 against P-GP expressing cells: KB-V-1; assay type: cell-based; settings: KB-V-1, P-GP level +++; mean of two independent experiments
Text: as §1

Human PGP (MDR1) = target: T1, Human PGP (MDR1) (Homo sapiens, UniProt P08183); assay: Transport by P-GP (MDR-1); assay type: cell-based; settings: judged from IC50 in KB, KB-8-5, KB-V-1 cells
T1 construct: endogenous in cells; parental KB is P-GP negative
Text: as §1

T1 sequence (P08183 whole entry): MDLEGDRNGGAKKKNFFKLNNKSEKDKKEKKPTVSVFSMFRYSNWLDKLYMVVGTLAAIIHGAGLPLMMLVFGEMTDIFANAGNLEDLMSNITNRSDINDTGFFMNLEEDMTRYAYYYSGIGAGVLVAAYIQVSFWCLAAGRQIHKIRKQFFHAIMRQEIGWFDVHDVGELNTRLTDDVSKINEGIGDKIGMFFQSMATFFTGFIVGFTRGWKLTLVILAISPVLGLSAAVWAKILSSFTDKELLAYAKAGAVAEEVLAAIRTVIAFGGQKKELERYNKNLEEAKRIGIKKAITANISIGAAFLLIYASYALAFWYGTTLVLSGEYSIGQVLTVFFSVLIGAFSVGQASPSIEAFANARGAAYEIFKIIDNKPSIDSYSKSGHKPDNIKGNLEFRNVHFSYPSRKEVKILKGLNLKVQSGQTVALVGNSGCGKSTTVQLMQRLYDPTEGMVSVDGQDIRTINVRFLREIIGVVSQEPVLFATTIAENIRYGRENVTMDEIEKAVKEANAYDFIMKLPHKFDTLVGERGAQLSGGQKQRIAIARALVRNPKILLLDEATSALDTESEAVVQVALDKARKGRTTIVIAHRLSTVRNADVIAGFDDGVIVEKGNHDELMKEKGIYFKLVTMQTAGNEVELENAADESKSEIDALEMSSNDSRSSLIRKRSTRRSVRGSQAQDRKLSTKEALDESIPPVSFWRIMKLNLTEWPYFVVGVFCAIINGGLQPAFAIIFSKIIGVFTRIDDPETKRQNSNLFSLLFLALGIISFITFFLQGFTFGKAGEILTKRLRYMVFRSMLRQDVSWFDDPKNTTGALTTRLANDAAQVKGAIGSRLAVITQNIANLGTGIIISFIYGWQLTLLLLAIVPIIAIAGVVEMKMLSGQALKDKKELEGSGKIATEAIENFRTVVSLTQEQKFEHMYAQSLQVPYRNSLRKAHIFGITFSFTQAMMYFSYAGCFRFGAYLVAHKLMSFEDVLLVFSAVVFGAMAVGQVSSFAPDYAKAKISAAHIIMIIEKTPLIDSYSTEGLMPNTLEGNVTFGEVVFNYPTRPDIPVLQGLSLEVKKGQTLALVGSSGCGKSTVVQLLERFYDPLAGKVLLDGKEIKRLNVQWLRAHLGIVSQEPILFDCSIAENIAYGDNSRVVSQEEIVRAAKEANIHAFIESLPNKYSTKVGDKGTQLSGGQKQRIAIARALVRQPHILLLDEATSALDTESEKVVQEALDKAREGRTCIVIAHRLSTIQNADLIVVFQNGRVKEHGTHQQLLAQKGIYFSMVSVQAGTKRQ

B1: Actinomadura sp. 21G792 chromoprotein: non-covalent complex of an apoprotein and a chromophore comprising a nine-membered enediyne, produced by Actinomadura sp. 21G792 (NRRL 30778) (protein)
chain: DTVTVNYDCVGYPSDIAVTIDAPATAGVGDTATFEVSSVVTTGAPQDLPAGEVVTDMAIVVGGAQSGTITASGLTNEATPAGQPVNMVGGEAQITFTSAGSVTFTPSTTTQVDNGAQCTVVGEAPVGATTVVS
- concentration at which dose-dependent DNA strand breaks occur [1]: > 100 ng/mL
- digestion of histone H1 on addition of DNA (Histone H1): inhibited by addition of DNA
- digestion of histones on addition of free radical scavengers (Histone H1; 30 mM glutathione or N-acetyl cysteine): inhibited by the addition of free radical scavengers
- digestion of histone H1 (Histone H1; 50 mM Tris-Cl, pH 7.5 overnight at 37° C.): digestion of Histone H1
- digestion of histones on addition of protease inhibitors (Histone H1; PMSF, Leupeptin, Aprotinin, Pepstatin A): not by protease inhibitors
- IC50 (LoVo): 2 ng/mL
- IC50 (BT474): 47 ng/mL
- biological activity after FITC labeling (HCT116 cells): No loss of biological activity
- uptake, apoprotein compared with chromoprotein (HCT116 cells): similar
- cellular localisation of label (HCT116 cells; incubation 3-6 hours, fluorescent microscopy): Most of the label appeared in the cytoplasm
- competition of uptake by 10-fold excess of unlabeled reagent (HCT116 cells; microscopy or flow cytometry): No competition of label
- cleavage of myelin basic protein (myelin basic protein): cleaves
- IC50 (KB): 10 ng/mL
- IC50 (LOX): 1 ng/mL
- IC50 (KB-V-1): 142 ng/mL
- MDR1 substrate (Human PGP (MDR1)): poor MDR1 substrate
